The text below walks through data of FireProtDB.

Values joined by “and” are separate entries in the source; they are usually repeats but may differ in a detail not shown here. Equal values may be shown once.

For this data set the following is noted: whole UniProt chain shown.
Where [1] appears, read: Locusta migratoria, pH 3, 20 °C, Thermal, NMR, Unknown.
Setting [2] is: Locusta migratoria, pH 7, 25 °C, GdnHCl, CD, Sodium phosphate 50 mM, KCl 100 mM, reversible: yes.
Where [3] appears, read: Homo sapiens, pH 5.2, 20 °C, GdnHCl, CD, Sodium acetate 20 mM, reversible: yes.
[4] abbreviates: Homo sapiens, pH 6.2, 25 °C, 2-Propanol, CD, Piperazine Unknown, NaCl 30 mM, transition: 2, reversible: Yes.
Where [5] appears, read: Hydrogenobacter thermophilus (strain DSM 6534 / IAM 12695 / TK-6), pH 7, Thermal, CD, KH2PO4-NaOH 10 mM, reversible: yes.
Where [6] appears, read: Homo sapiens, pH 7.5, 23 °C, GdnHCl, Fluorescence, Tris-HCl 50 mM, reversible: yes.

For orientation: Tm means the temperature at which the thermal transition is half complete.

B1: Endo-1,4-beta-xylanase 2 wild type, P36217 (protein)
chain: MVSFTSLLAGVAAISGVLAAPAAEVESVAVEKRQTIQPGTGYNNGYFYSYWNDGHGGVTYTNGPGGQFSVNWSNSGNFVGGKGWQPGTKNKVINFSGSYNPNGNSYLSVYGWSRNPLIEYYIVENFGTYNPSTGATKLGEVTSDGSVYDIYRTQRVNQPSIIGTATFYQYWSVRRNHRSSGSVNTANHFNAWAQQGLTLGTMDYQIVAVEGYFSSGSASITVS
In the case of B1, the Tm (Hypocrea jecorina (strain ATCC 56765 / BCRC 32924 / NRRL 11460 / Rut C-30), pH 5, Thermal, DSC, citrate - phosphate buffer 50 mM) is 61.4 °C.

B2: Protease inhibitors wild type, P80060 (protein)
chain: MKFALALCAAVLLVVLVQAEEKCTPGQVKQQDCNTCTCTPTGVWGCTRKGCQPAKREISCEPGKTFKDKCNTCRCGADGKSAACTLKACPNQ
With B2, under setting [1], the “unfolding enthalpy (van 't Hoff)” value is 19.3 kcal/mol and the unfolding free energy amounted to 1.1 kcal/mol.

B3: Arginine kinase wild type, P14208 (protein)
chain: MADAATIAKLEEGFKKLEAATDCKSLLKKYLSKDIFDSLKAKKTSLGATLLDVIQSGVENLDSGVGIYAPDAEAYSLFAPLFDPIIEDYHKGFKQTDKHPAKDFGDVSKFINVDPEGTFVISTRVRCGRSMEGYPFNPCLTEAQYKEMEEKVSSTLSGLEGELKGSYFPLTGMTKEVQQKLIDDHFLFKEGDRFLQAANACRYWPAGRGIYHNDNKTFLVWCNEEDHLRIISMQMGGDLGQVYRRLVSAVNDIEKRVPFSHHDRLGFLTFCPTNLGTTVRASVHIKLPKLAANREKLEEVAAKFSLQVRGTRGEHTEAEGGIYDISNKRRMGLTEFQAVKEMQDGILELIKIEKEM
With B3, the unfolding free energy (Homarus gammarus, pH 7.4, 22 °C, GdnHCl, CD, Sodium phosphate 100 mM) came to 5.98 kcal/mol.

B4: Apolipophorin-3b wild type, P10762 (protein)
chain: MNTLLAVLMLAVAAQARPDAAGHVNIAEAVQQLNHTIVNAAHELHETLGLPTPDEALNLLTEQANAFKTKIAEVTTSLKQEAEKHQGSVAEQLNRFARNLNNSIHDAATSAQPADQLNSLQSALTNVGHQWQTSQPRPSVAQEAWAPVQSALQEAAEKTKEAAANLQNSIQSAVQKPAN
With B4, under setting [2], the denaturant m value was 3.46 kcal/mol/M and 4.33 kcal/mol/M; the “denaturant midpoint (higher = more stable)” value (“denaturant midpoint” for short) is 0.6 M and 0.27 M.

B5: Thymidylate synthase wild type, P00469 (protein)
chain: MLEQPYLDLAKKVLDEGHFKPDRTHTGTYSIFGHQMRFDLSKGFPLLTTKKVPFGLIKSELLWFLHGDTNIRFLLQHRNHIWDEWAFEKWVKSDEYHGPDMTDFGHRSQKDPEFAAVYHEEMAKFDDRVLHDDAFAAKYGDLGLVYGSQWRAWHTSKGDTIDQLGDVIEQIKTHPYSRRLIVSAWNPEDVPTMALPPCHTLYQFYVNDGKLSLQLYQRSADIFLGVPFNIASYALLTHLVAHECGLEVGEFIHTFGDAHLYVNHLDQIKEQLSRTPRPAPTLQLNPDKHDIFDFDMKDIKLLNYDPYPAIKAPVAV
In the case of B5, the unfolding free energy (Lacticaseibacillus casei, pH 7, 4 °C, Urea, CD, KHPO4 20 mM, KCl 0.5 M, reversible: yes) is 19.1 kcal/mol.

B6: Lysozyme C wild type, P61626 (protein)
chain: MKALIVLGLVLLSVTVQGKVFERCELARTLKRLGMDGYRGISLANWMCLAKWESGYNTRATNYNAGDRSTDYGIFQINSRYWCNDGKTPGAVNACHLSCSALLQDNIADAVACAKRVVRDPQGIRAWVAWRNRCQNRDVRQYVQGCGV
For B6, the unfolding free energy (Homo sapiens, pH 3, 10 °C, GdnHCl, Fluorescence, glycine-HCl 40 mM, reversible: yes) turned out to be 11.8 kcal/mol. Also, the unfolding free energy (Homo sapiens, pH 4, 10 °C, GdnHCl, CD, glycine-HCl 40 mM, reversible: yes) stood at 14 kcal/mol. Under setting [3], the denaturant m value came out at 3.6 kcal/mol/M, the “denaturant midpoint” value worked out at 4.12 M and the unfolding free energy came out at 14.7 kcal/mol.

B7: Glycodelin wild type, P09466 (protein)
chain: MLCLLLTLGVALVCGVPAMDIPQTKQDLELPKLAGTWHSMAMATNNISLMATLKAPLRVHITSLLPTPEDNLEIVLHRWENNSCVEKKVLGEKTENPKKFKINYTVANEATLLDTDYDNFLFLCLQDTTTPIQSMMCQYLARVLVEDDEIMQGFIRAFRPLPRHLWYLLDLKQMEEPCRF
Turning to B7, under setting [4], the denaturant m value turned out to be 1.5 kcal/mol/M, the “denaturant midpoint” value turned out to be 3.5 M and the unfolding free energy is 5.4 kcal/mol.

B8: Cytochrome b5 type B wild type, O43169 (protein)
chain: MSGSMATAEASGSDGKGQEVETSVTYYRLEEVAKRNSLKELWLVIHGRVYDVTRFLNEHPGGEEVLLEQAGVDASESFEDVGHSSDAREMLKQYYIGDIHPSDLKPESGSKDPSKNDTCKSCWAYWILPIIGAVLLGFLYRYYTSESKSS
As for B8, the “denaturant midpoint” value (Homo sapiens, pH 7, 25 °C, GdmSCN, UV/visible spectrophotometer, MOPS 30mM) stood at 1.86 M. Also, the Tm (Homo sapiens, pH 7, Thermal, UV/visible spectrophotometer, Potassium phosphate 50mM) came to 85.7 °C.

B9: Cytochrome c-552 wild type, P15452 (protein)
chain: MKKFLLVAVVGLAGITFANEQLAKQKGCMACHDLKAKKVGPAYADVAKKYAGRKDAVDYLAGKIKKGGSGVWGSVPMPPQNVTDAEAKQLAQWILSIK
As to B9, under setting [5], the Tm stood at 90 °C and the “unfolding enthalpy (van 't Hoff)” value amounted to 83.5 kcal/mol.

B10: SNARE-associated protein Snapin wild type, O95295 (protein)
chain: MAGAGSAAVSGAGTPVAGPTGRDLFAEGLLEFLRPAVQQLDSHVHAVRESQVELREQIDNLATELCRINEDQKVALDLDPYVKKLLNARRRVVLVNNILQNAQERLRRLNHSVAKETARRRAMLDSGIYPPGSPGK
B10: where the note is “Homo sapiens, pH 7.4, Thermal, CD, Tris 50 mM”, the Tm turned out to be 57.9 °C.

B11: Tissue factor wild type, P13726 (protein)
chain: METPAWPRVPRPETAVARTLLLGWVFAQVAGASGTTNTVAAYNLTWKSTNFKTILEWEPKPVNQVYTVQISTKSGDWKSKCFYTTDTECDLTDEIVKDVKQTYLARVFSYPAGNVESTGSAGEPLYENSPEFTPYLETNLGQPTIQSFEQVGTKVNVTVEDERTLVRRNNTFLSLRDVFGKDLIYTLYYWKSSSSGKKTAKTNTNEFLIDVDKGENYCFSVQAVIPSRTVNRKSTDSPVECMGQEKGEFREIFYIIGAVVFVVIILVIILAISLHKCRKAGVGQSWKENSPLNVS
As for B11, under setting [6], the “denaturant midpoint” value came out at 1.35 M and the unfolding free energy was 6.3 kcal/mol.

B12: Metallocarboxypeptidase inhibitor wild type, P81511 (protein)
chain: MFLLVFLCCLHLVISSHTPDESFLCYQPDQVCCFICRGAAPLPSEGECNPHPTAPWCREGAVEWVPYSTGQCRTTCIPYVE
Turning to B12, the “denaturant midpoint” value is 3.6 M (Hirudo medicinalis, pH 8.4, 23 °C, GdnHCl, Fluorescence, Tris-HCl 0.1 M) and 2.4 M (Hirudo medicinalis, pH 8.4, 23 °C, GdnSCN, Fluorescence, Tris-HCl 0.1 M).
